According to the Immune Epitope Database (IEDB):
Blank lines part the entries; values can stand above or below the sequence they belong to.

Legend:
HLA-A*01:01 = assay: IEDB peptide-MHC binding, purified MHC/direct/fluorescence; filed as Kd, often an IC50 or EC50 that approximates it; ≥ and ≤ were set here for values at or beyond the usual limits of such assays
HLA-A*02:01 [1] = assay: as above; details: source organism: Camelpox virus M-96
HLA-A*26:01 = assay: as above; details: source organism: Variola virus
HLA-A*31:01 [2] = assay: as above
HLA-A*69:01 [3] = assay: as above; details: source organism: Camelpox virus M-96
HLA-B*08:01 = assay: as above; details: source organism: Variola virus
HLA-B*15:09 = assay: as above; details: source organism: Variola virus
HLA-B*27:05 = assay: as above; details: source organism: Camelpox virus M-96
HLA-B*39:01 [4] = assay: as above; details: source organism: Variola virus
HLA-B*40:01 = assay: as above
HLA-B*48:01 = assay: as above
HLA-B*58:01 = assay: as above
HLA-A*03:01 [5] = assay: IEDB peptide-MHC binding, purified MHC/competitive/fluorescence; filed as Kd, often an IC50 or EC50 that approximates it; ≥ and ≤ were set here for values at or beyond the usual limits of such assays; details: source organism: Vaccinia virus Copenhagen
HLA-A*11:01 [6] = assay: as above; details: source organism: Vaccinia virus Copenhagen
HLA-B*15:01 = assay: as above; details: source organism: Vaccinia virus Copenhagen
HLA-B*15:17 = assay: as above; details: source organism: Vaccinia virus Copenhagen
HLA-B*57:01 [7] = assay: as above; details: source organism: Vaccinia virus Copenhagen
HLA-C*08:02 = assay: IEDB peptide-MHC binding, purified MHC/direct/fluorescence; filed as Kd, often an IC50 or EC50 that approximates it; ≥ and ≤ were set here for values at or beyond the usual limits of such assays
HLA-A*03:01 [8] = assay: IEDB peptide-MHC binding, purified MHC/competitive/radioactivity; filed as Kd, often an IC50 or EC50 that approximates it; ≥ and ≤ were set here for values at or beyond the usual limits of such assays; details: source organism: Vaccinia virus WR
HLA-A*11:01 [9] = assay: as above; details: source organism: Vaccinia virus WR
HLA-A*31:01 [10] = assay: as above; details: source organism: Vaccinia virus WR
HLA-A*33:01 = assay: as above; details: source organism: Vaccinia virus WR
HLA-A*68:01 = assay: as above; details: source organism: Vaccinia virus WR
HLA-A*03:01 [11] = assay: IEDB peptide-MHC binding, purified MHC/direct/fluorescence; filed as Kd, often an IC50 or EC50 that approximates it; ≥ and ≤ were set here for values at or beyond the usual limits of such assays; details: source organism: Cryptosporidium hominis
HLA-B*07:02 = assay: as above; details: source organism: Cryptosporidium hominis
HLA-B*08:03 = assay: as above; details: source organism: Cryptosporidium parvum Iowa II
HLA-B*18:01 = assay: as above; details: source organism: Cryptosporidium hominis
HLA-B*44:02 = assay: as above; details: source organism: Cryptosporidium hominis
HLA-B*57:01 [12] = assay: as above; details: source organism: Cryptosporidium hominis
HLA-C*12:03 = assay: as above
HLA-A*02:01 [13] = assay: IEDB peptide-MHC binding, purified MHC/competitive/fluorescence; filed as Kd, often an IC50 or EC50 that approximates it; ≥ and ≤ were set here for values at or beyond the usual limits of such assays
HLA-A*69:01 [14] = assay: as above
HLA-B*27:03 = assay: as above; details: source organism: Mus musculus
HLA-B*39:01 [15] = assay: as above; details: source organism: Mus musculus
HLA-B*46:01 = assay: as above; details: source organism: Mus musculus
HLA-B*51:01 = assay: as above; details: source organism: Mus musculus
HLA-A*02:03 = assay: as above; details: source organism: Human immunodeficiency virus 1
HLA-A*02:06 = assay: as above; details: source organism: Human immunodeficiency virus 1
HLA-A*02:12 = assay: as above; details: source organism: Human immunodeficiency virus 1
HLA-A*02:16 = assay: as above; details: source organism: Human immunodeficiency virus 1
HLA-A*02:19 = assay: as above; details: source organism: Human immunodeficiency virus 1
HLA-C*03:03 = assay: IEDB peptide-MHC binding, purified MHC/direct/fluorescence; filed as Kd, often an IC50 or EC50 that approximates it; ≥ and ≤ were set here for values at or beyond the usual limits of such assays; details: source organism: Rickettsia rickettsii str. 'Sheila Smith'
[16] = source organism: Camelpox virus M-96
[17] = source organism: Cryptosporidium hominis
[18] = source organism: Human immunodeficiency virus 1
[19] = source organism: Rickettsia rickettsii str. 'Sheila Smith'

Sequence: MTRVTNNVY
Kd (HLA-A*01:01; [16]): 2.59 µM
Kd (HLA-A*02:01 [1]): ≥ 20 µM
Kd (HLA-A*26:01): 0.237 µM
Kd (HLA-A*31:01 [2]; [16]): ≥ 20 µM
Kd (HLA-A*69:01 [3]): ≥ 20 µM
Kd (HLA-B*08:01): ≥ 20 µM
Kd (HLA-B*15:09): ≥ 20 µM
Kd (HLA-B*27:05): ≥ 20 µM
Kd (HLA-B*39:01 [4]): ≥ 20 µM
Kd (HLA-B*40:01; [16]): ≥ 20 µM
Kd (HLA-B*48:01; [16]): ≥ 20 µM
Kd (HLA-B*58:01; source organism: Variola virus): 0.635 µM
Kd (HLA-A*03:01 [5]): ≥ 20 µM
Kd (HLA-A*11:01 [6]): ≥ 20 µM
Kd (HLA-B*15:01): 0.125 µM
Kd (HLA-B*15:17): ≤ 0.001 µM
Kd (HLA-B*57:01 [7]): 0.0986 µM

Sequence: FTDISMSLY
Kd (HLA-A*01:01; [16]): ≤ 0.001 µM
Kd (HLA-C*08:02; source organism: Variola virus): 0.019 µM
Kd (HLA-A*03:01 [8]): ≥ 32.2 µM
Kd (HLA-A*11:01 [9]): 2.53 µM
Kd (HLA-A*31:01 [10]): 10.7 µM
Kd (HLA-A*33:01): ≥ 77.7 µM
Kd (HLA-A*68:01): 0.546 µM

Sequence: FMKSRVYSI
Kd (HLA-A*01:01; [17]): ≥ 20 µM
Kd (HLA-A*03:01 [11]): ≥ 20 µM
Kd (HLA-A*31:01 [2]; [17]): ≥ 20 µM
Kd (HLA-B*07:02): ≥ 20 µM
Kd (HLA-B*08:03): 0.029 µM
Kd (HLA-B*18:01): ≥ 20 µM
Kd (HLA-B*40:01; [17]): ≥ 20 µM
Kd (HLA-B*44:02): ≥ 20 µM
Kd (HLA-B*48:01; [17]): ≥ 20 µM
Kd (HLA-B*57:01 [12]): ≥ 20 µM
Kd (HLA-B*58:01; [17]): ≥ 20 µM

Kd (HLA-C*08:02; source organism: Mus musculus): ≥ 20 µM
Kd (HLA-C*12:03; source organism: Mus musculus): ≤ 0.001 µM
Kd (HLA-A*02:01 [13]; source organism: Mus musculus): ≥ 20 µM
Kd (HLA-A*69:01 [14]; source organism: Mus musculus): ≥ 20 µM
Kd (HLA-B*27:03): ≥ 20 µM
Kd (HLA-B*39:01 [15]): ≥ 20 µM
Kd (HLA-B*46:01): 0.0114 µM
Kd (HLA-B*51:01): ≥ 20 µM
Sequence: YTFCGTIEY

Sequence: SLVKHHMYV
Kd (HLA-A*02:01 [13]; [18]): 0.00733 µM
Kd (HLA-A*02:03): 0.00188 µM
Kd (HLA-A*02:06): ≤ 0.0001 µM
Kd (HLA-A*02:12): 0.00935 µM
Kd (HLA-A*02:16): 0.000572 µM
Kd (HLA-A*02:19): 0.0173 µM
Kd (HLA-A*69:01 [14]; [18]): 0.145 µM

Sequence: FMPESSYLL
Kd (HLA-C*03:03): 0.443 µM
Kd (HLA-C*08:02; [19]): ≥ 20 µM
Kd (HLA-C*12:03; [19]): 0.707 µM
